Results: patent publication US20250320501A1, “PALMITOYLATION OF THE ALTERNATIVE AMINO TERMINUS OF THE BTK-C ISOFORM CONTROLS SUBCELLULAR DISTRIBUTION AND SIGNALING” (The Research Foundation for the State University of New York, priority 2022, published 2025)

Tested on: BTK-A and BTK-C
Experiment: Activating phosphorylation of BTK isoforms after stimulation with other ligands
Type: cell-based, human
Details: ligand stimulation (not shown)

B1: RANKL: ligand used for stimulation of BTK activation (protein, UniProt O14788 140-317, looked up)
Tumor necrosis factor ligand …: IRAEKAMVDGSWLDLAKRSKLEAQPFAHLTINATDIPSGSHKVSLSSWYHDRGWAKISNMTFSNGKLIVNQDGFYYLYANICFRHHETSGDLATEYLQLMVYVTKTSIKIPSSHTLMKGGSTKYWSGNSEFHFYSINVGGFFKLRSGEEISIEVSNPSLLDPDQDATYFGAFKVRDID
increase of activating phosphorylation levels above unstimulated levels: only modestly
